For this assay, the target named is T1, DDB1:CRBN complex, full-length human CRBN (residues 1–442) with N-terminal biotinylated Avi-tag, co-expressed … (human, UniProt Q96SW2 1-442; Q16531 1-1140, biotin on the Avi-tag (BirA, 100% efficiency)).
T1 construct: cereblon (CRBN), human, full-length, residues 1–442; DDB1, human, residues 1–1140; A 6xGS linker stands between the non-cleavable Avi-tag and CRBN; The host is named (Sf21) only for the crystallisation construct; also called DDB1:N-avi-biotin-CRBN; DDB1:N-avi-CRBN; source: biotinylated with BirA; not shown: Avi-tag, N-terminal, kept
T1 sequence (Q96SW2 whole entry, chain 1 of 2, the tested form may be a part): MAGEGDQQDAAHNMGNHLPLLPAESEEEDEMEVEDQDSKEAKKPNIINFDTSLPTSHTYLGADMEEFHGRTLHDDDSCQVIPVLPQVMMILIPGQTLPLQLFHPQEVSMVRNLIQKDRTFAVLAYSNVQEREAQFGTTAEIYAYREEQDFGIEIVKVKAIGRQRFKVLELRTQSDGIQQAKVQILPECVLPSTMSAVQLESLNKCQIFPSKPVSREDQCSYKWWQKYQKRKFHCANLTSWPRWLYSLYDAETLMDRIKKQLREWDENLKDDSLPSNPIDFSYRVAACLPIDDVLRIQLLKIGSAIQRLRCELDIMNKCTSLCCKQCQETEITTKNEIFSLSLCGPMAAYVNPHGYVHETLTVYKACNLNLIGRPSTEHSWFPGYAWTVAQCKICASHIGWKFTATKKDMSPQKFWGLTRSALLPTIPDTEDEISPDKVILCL
T1 sequence (Q16531 whole entry, chain 2 of 2, the tested form may be a part): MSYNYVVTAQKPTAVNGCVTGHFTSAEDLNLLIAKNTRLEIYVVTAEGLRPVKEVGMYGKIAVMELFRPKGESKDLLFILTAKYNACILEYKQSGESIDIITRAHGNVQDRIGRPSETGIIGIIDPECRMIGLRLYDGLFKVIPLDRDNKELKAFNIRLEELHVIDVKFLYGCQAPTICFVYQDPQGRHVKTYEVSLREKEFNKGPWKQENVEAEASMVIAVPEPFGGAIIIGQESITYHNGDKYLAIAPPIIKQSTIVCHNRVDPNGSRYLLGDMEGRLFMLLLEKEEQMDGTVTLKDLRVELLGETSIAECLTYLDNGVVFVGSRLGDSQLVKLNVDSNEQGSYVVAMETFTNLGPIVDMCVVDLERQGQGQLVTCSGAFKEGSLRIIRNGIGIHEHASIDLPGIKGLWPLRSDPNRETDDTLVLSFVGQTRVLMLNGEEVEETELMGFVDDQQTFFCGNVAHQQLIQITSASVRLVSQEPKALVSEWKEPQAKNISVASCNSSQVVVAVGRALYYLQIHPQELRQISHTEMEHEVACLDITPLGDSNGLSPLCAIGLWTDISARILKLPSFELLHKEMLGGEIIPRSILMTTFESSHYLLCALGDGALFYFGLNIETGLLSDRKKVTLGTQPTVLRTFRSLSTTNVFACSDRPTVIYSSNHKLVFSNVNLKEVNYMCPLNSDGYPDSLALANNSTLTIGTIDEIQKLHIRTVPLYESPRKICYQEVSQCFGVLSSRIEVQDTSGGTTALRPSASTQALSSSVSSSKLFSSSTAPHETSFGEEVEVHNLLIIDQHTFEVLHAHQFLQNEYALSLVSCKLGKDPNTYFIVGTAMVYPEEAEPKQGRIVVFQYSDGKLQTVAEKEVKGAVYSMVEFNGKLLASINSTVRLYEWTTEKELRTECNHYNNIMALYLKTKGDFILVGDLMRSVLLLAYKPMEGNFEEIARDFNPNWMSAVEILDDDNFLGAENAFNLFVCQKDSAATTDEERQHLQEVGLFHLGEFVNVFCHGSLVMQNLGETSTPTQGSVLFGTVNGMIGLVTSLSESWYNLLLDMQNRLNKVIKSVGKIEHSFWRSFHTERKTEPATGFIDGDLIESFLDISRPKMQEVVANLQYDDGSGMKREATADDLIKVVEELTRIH
Nature of the assay: SPR; DDB1:N-avi-biotin-CRBN immobilised on a streptavidin sensor (~5000–7000 RU), Biacore 8k, ABA method; SALL4 zinc fingers in 2X dilution series with 5 μM pomalidomide throughout; PBS pH 7.2, 5% glycerol, total NaCl ~300 mM, 0.01% P20, 1 mM TCEP, 0.05% DMSO; 15 °C; 30 µL/minute; 1:1 kinetic modelling. The conditions noted are these: both partners purified.

B1: Human SALL4 ZF1(370–409) (domain or fragment, UniProt Q9UJQ4 370-409, looked up)
chain: DVKPKDEAALYKHKCKYCSKVFGTDSSLQIHLRSHTGERP
notes: not shown: Twin-Strep-ZZ, N-terminal, cleaved
With B1, the KD with pomalidomide was more than 50 µM.

For the origin of these results see article PMC10716131, “Structural and biophysical comparisons of the pomalidomide- and CC-220-induced interactions of SALL4 with cereblon” (Scientific Reports, 2023).
